Experimental findings from paper PMC12640004 are described below.

The data set addresses JrERF113-HIS (Juglans regia). The data set is described as follows: EMSA.

B1: JrIPT1 bioProbe (wild type) (dsDNA)
DNA 1: ATCATACTGATGGAGGAGGGCGGTCCCGAATTTATATATATAGTTTCTAC
DNA 2: GTAGAAACTATATATATAAATTCGGGACCGCCCTCCTCCATCAGTATGAT
As to B1, the binding result is on record as “binds”.

B2: JrIPT1 mbioProbe (GCC-box mutant) (dsDNA)
DNA 1: ATCATACTGATGGAGTATTTCTTTCCCGAATTTATATATATAGTTTCTAC
DNA 2: GTAGAAACTATATATATAAATTCGGGAAAGAAATACTCCATCAGTATGAT
As for B2, the binding result is “no binding”.
